Assay results as given in patent US20230211007A1 (published 2023).
Residue numbers refer to the chain shown, from its start.

Target: T1, CD20 (UniProt P11836 142-188, limits assumed)
T1 construct: Bought reagent
T1 chain (looked up): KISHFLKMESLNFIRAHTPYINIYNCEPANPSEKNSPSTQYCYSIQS
Experiment: BLI (Octet), antibody on Pro A probe, CD20 25-200 nM in solution
Protocol: Antibody samples were dissolved in PBS with a working concentration of 10 μg/mL; CD20 (Beijing SinoBiological Co., Ltd.) was dissolved in PBS and gradiently diluted to concentrations of 25 nM, 50 nM, 75 nM, 100 nM, 150 nM, 200 nM respectively. The working volume was 200 μL.
The data diagram was fitted by OCTET system and data-processing software, and the intermolecular interaction between the antibody and the CD20 was calculated by the software, and shown in KD value.

B1: WT Rituximab (antibody, human IgG1, kappa)
heavy: not shown
light: QIVLSQSPAILSASPGEKVTMTCRASSSVSYIHWFQQKPGSSPKPWIYATSNLASGVPVRFSGSGSGTSYSLTISRVEAEDAATYYCQQWTSNPPTFGGGTKLEIKRTVAAPSVFIFPPSDEQLKSGTASVVCLLNNFYPREAKVQWKVDNALQSGNSQESVTEQDSKDSTYSLSSTLTLSKADYEKHKVYACEVTHQGLSSPVTKSFNRGEC
notes: also called anti-CD20 wild-type antibody
Kd: 5.35 nM

B2: anti-CD20 antibody mutant 166C (antibody, human IgG1, kappa)
heavy: not shown
light: B1 light with Q165C
Kd: 4.86 nM

B3: anti-CD20 antibody mutant 124C (antibody, human IgG1, kappa)
heavy: not shown
light: B1 light with Q123C
Kd: 8.97 nM
